The results in this text go back to patent US20120101037A1 (Hoffmann-La Roche, published 2012).

Non-standard residues stand in square brackets, D forms with d. Groups on a side chain read outwards from the residue. Primed or numbered codes have the meaning given here. *: point of attachment. dPhe(3,5-F2) = N[C@H](Cc1cc(F)cc(F)c1)C(=O)O; dPhe(3-Cl) = N[C@H](Cc1cccc(Cl)c1)C(=O)O; dPhe(4-Cl) = N[C@H](Cc1ccc(Cl)cc1)C(=O)O; dPhe(2-Cl) = N[C@H](Cc1ccccc1Cl)C(=O)O; dPhe(3-F) = N[C@H](Cc1cccc(F)c1)C(=O)O; Desaminotyrosyl = O=C(CCc1ccc(O)cc1)*; dPhe(2-F) = N[C@H](Cc1ccccc1F)C(=O)O; dPhe(3,4,5-F3)′ = not defined here; Hydrocinnamoyl = O=C(CCc1ccccc1)*; SSA = succinimidyl succinamide

T1: human GIPR (glucose-dependent insulinotropic polypeptide receptor) (human, UniProt P48546 22-466)
T1 sequence (looked up): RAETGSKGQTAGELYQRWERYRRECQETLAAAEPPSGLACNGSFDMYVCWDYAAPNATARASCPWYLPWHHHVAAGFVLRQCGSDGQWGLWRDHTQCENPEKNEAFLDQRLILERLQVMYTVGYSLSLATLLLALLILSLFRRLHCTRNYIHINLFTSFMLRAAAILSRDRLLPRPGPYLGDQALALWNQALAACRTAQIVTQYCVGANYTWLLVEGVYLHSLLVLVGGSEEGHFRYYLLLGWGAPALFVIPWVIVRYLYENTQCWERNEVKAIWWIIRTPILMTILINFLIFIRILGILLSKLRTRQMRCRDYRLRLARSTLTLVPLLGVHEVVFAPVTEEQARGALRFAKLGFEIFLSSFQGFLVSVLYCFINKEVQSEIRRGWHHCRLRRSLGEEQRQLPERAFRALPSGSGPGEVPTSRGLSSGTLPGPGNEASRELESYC

B1: Ac-(D)-3-Pya-Ala-Glu-Gly-Thr-Phe-Ile-Ser-Asp-Tyr-Ser-Ile-Ala-Met-Asp-Lys-Ile-His-Gln-Gln-Asp-Phe-Val-Asn-Trp-Leu-Leu-Ala-Gln-Lys-NH2 (peptide)
peptide: AAEGTFISDYSIAMDKIHQQDFVNWLLAQK
modifications: position 1 is acetylated D-3-pyridylalanine (Ac-(D)3Pya); C-terminal amide (NH2)

The experiment deals with T1, human GIPR (glucose-dependent …). The experiment is described as follows: cell-based or functional assay.
Turning to Ac-[dY]AEGTFISDYSIAMDAIHQQDFVNWLLAQK([SSA-PEGm 12,000])-NH2, the “% activation of cAMP” value turned out to be 100% and the “EC50 (nMol), cAMP” value came to 0.0022 nmol.

As for Ac-[dPhe(3,4,5-F3)′]AEGTFISDYSIAMDKIHQQDFVNWLLAQK-NH2 (also: 1:2 TFA salt), the “% activation of cAMP” value was 100% and the “EC50 (nMol), cAMP” value was found to be 0.104 nmol.

Turning to Ac-[dY]AEGTFISDYSIAMDAIHQQDFVNWLLAQK([SSA-PEGm 30,000])-NH2, the “% activation of cAMP” value worked out at 101% and the “EC50 (nMol), cAMP” value came out at 0.0017 nmol.

Ac-[dPhe(4-Cl)]AEGTFISDYSIAMDKIHQQDFVNWLLAQK-NH2 (also: 1:2 TFA salt): the “% activation of cAMP” value is 106% and the “EC50 (nMol), cAMP” value was 0.025 nmol.

As to B1, the “% activation of cAMP” value was 102% and the “EC50 (nMol), cAMP” value is 0.08 nmol.

For the molecule Ac-[dW]AEGTFISDYSIAMDKIHQQDFVNWLLAQK-NH2 (also: 1:2 TFA salt), the “% activation of cAMP” value amounted to 102% and the “EC50 (nMol), cAMP” value is 0.1 nmol.

Regarding Ac-[dPhe(2-Cl)]AEGTFISDYSIAMDKIHQQDFVNWLLAQK-NH2 (also: 1:2 TFA salt), the “% activation of cAMP” value came to 104% and the “EC50 (nMol), cAMP” value worked out at 0.121 nmol.

For the molecule Ac-[dY]AEGTFISDYSIAMDKIHQQDFVNWLLAQK-NH2 (also: 1:2 TFA salt), the “% activation of cAMP” value is 102% and the “EC50 (nMol), cAMP” value amounted to 0.0007 nmol.

Consider Ac-[dY]AEGTFISDYSIAMDAIHQQDFVNWLLAQK([SSA-PEGm 20,000])-NH2, for which the “% activation of cAMP” value was 102% and the “EC50 (nMol), cAMP” value stood at 0.0049 nmol.

For the molecule Ac-YAEGTFISDYSIAMDKIHQQDFVNWLLAQK-NH2 (also: 1:2 TFA salt), the “% activation of cAMP” value worked out at 100%.

Consider Ac-[dF]AEGTFISDYSIAMDKIHQQDFVNWLLAQK-NH2 (also: 1:2 TFA salt), for which the “% activation of cAMP” value amounted to 102% and the “EC50 (nMol), cAMP” value amounted to 0.685 nmol.

On to Ac-[dPhe(3-Cl)]AEGTFISDYSIAMDKIHQQDFVNWLLAQK-NH2 (also: 1:2 TFA salt), for which the “% activation of cAMP” value is 106% and the “EC50 (nMol), cAMP” value turned out to be 0.072 nmol.

Regarding Ac-[dPhe(2-F)]AEGTFISDYSIAMDKIHQQDFVNWLLAQK-NH2 (also: 1:2 TFA salt), the “% activation of cAMP” value turned out to be 99.8% and the “EC50 (nMol), cAMP” value amounted to 0.0075 nmol.

For the molecule Ac-[dPhe(3-F)]AEGTFISDYSIAMDKIHQQDFVNWLLAQK-NH2 (also: 1:2 TFA salt), the “% activation of cAMP” value was determined as 98% and the “EC50 (nMol), cAMP” value was 0.058 nmol.

As to Ac-[dPhe(3,5-F2)]AEGTFISDYSIAMDKIHQQDFVNWLLAQK-NH2 (also: 1:2 TFA salt), the “% activation of cAMP” value was determined as 99.6% and the “EC50 (nMol), cAMP” value worked out at 0.003 nmol.

For the molecule Ac-[dY]AEGTFISDYSIAMDAIHQQDFVNWLLAQK-NH2 (also: 1:1 TFA salt), the “% activation of cAMP” value was 100% and the “EC50 (nMol), cAMP” value is 0.0005 nmol.

Consider [Hydrocinnamoyl]AEGTFISDYSIAMDKIHQQDFVNWLLAQK-NH2 (also: 1:2 TFA salt), for which the “% activation of cAMP” value came out at 101% and the “EC50 (nMol), cAMP” value was 0.797 nmol.

For [Desaminotyrosyl]AEGTFISDYSIAMDKIHQQDFVNWLLAQK-NH2 (also: 1:2 TFA salt), the “% activation of cAMP” value stood at 103% and the “EC50 (nMol), cAMP” value stood at 0.095 nmol.
